This is an account of results in the Immune Epitope Database (IEDB).

pKd: −log10 of the molar value.

What all share (test): IEDB peptide-MHC binding, purified MHC/competitive/radioactivity; filed as Kd, often an IC50 or EC50 that approximates it; ≥ and ≤ were set here for values at or beyond the usual limits of such assays
Experiment [1] concerns the target HLA-A*01:01.
In experiment [2] the target is HLA-A*29:02.
Experiment [3] deals with HLA-A*24:02.
Experiment [4] addresses HLA-A*30:02.
In experiment [5] the target is HLA-A*23:01.
Experiment [6] has as its target HLA-A*26:01.
Experiment [7] has as its target HLA-A*02:06.
For experiment [8], the target named is HLA-A*02:02.
For experiment [9], the target named is HLA-A*02:03.
The target of experiment [10] is HLA-A*02:01.
For experiment [11], the target named is HLA-A*68:02.
The target in experiment [12] is HLA-A*31:01. As to conditions: source organism: Vaccinia virus WR.
Experiment [13] concerns the target HLA-B*35:01. Particulars: source organism: Vaccinia virus WR.
In experiment [14] the target is HLA-B*51:01. As to conditions: source organism: Vaccinia virus WR.
Experiment [15] concerns the target HLA-A*33:01. As to conditions: source organism: Vaccinia virus WR.
The target in experiment [16] is HLA-A*68:01. Particulars: source organism: Vaccinia virus WR.
Experiment [17] deals with HLA-B*07:02. As to conditions: source organism: Vaccinia virus WR.
For experiment [18], the target named is HLA-A*03:01. Particulars: source organism: Vaccinia virus WR.
Experiment [19] has as its target HLA-A*11:01. As to conditions: source organism: Vaccinia virus WR.
For experiment [20], the target named is HLA-B*54:01. As to conditions: source organism: Vaccinia virus WR.
The target of experiment [21] is HLA-B*53:01. As to conditions: source organism: Vaccinia virus WR.
For experiment [22], the target named is HLA-A*32:01.
Experiment [23] deals with HLA-A*30:01.
Experiment [24] concerns the target HLA-B*44:03. Particulars: source organism: Dengue virus 1 Brazil/97-11/1997.
The mark [25] stands for this setting: source organism: SARS coronavirus Tor2.
Where [26] appears, read: source organism: Dengue virus 4 Philippines/H241/1956.
[27] abbreviates: source organism: Dengue virus 1 Brazil/97-11/1997.
The mark [28] stands for this setting: source organism: Lassa virus Josiah.
Setting [29] is: source organism: Dengue virus 2 Jamaica/1409/1983.
The mark [30] stands for this setting: source organism: Vaccinia virus WR.
[31] abbreviates: source organism: Mammarenavirus brazilense.
The mark [32] stands for this setting: source organism: Trypanosoma cruzi.
Setting [33] is: source organism: Mammarenavirus guanaritoense.
The mark [34] stands for this setting: source organism: Mammarenavirus juninense.
Where [35] appears, read: source organism: Mammarenavirus whitewaterense.

Take VFNNYMPYVF: the pKd – broadly, the Kd on a negative log10 scale, so that one unit is a factor of ten – was not above 4.69 in experiment [1] (setting [25]); 8.04 in experiment [2] (setting [25]); 7.95 in experiment [3] (setting [25]); 5.15 in experiment [4] (setting [25]); 8.08 in experiment [5] (setting [25]); not above 4.67 in experiment [6] (setting [25]).

Regarding GWKNWQEVPF, the pKd is 6.72 in experiment [3] (setting [26]) and 6.37 in [5] (setting [26]).

In the case of YYCKSHKPPI, the pKd in experiment [1] (setting [25]) was not above 4.32; in experiment [2] (setting [25]) it was 5.79; in experiment [3] (setting [25]), 6.71; in [4] (setting [25]) it was 4.94; in [5] (setting [25]) it was 6.68; in experiment [6] (setting [25]), not above 4.16.

As to TSTGNYNYKY, the pKd in experiment [1] (setting [25]) was 7.02; in experiment [2] (setting [25]), 6.53; in experiment [3] (setting [25]), not above 4.15; in experiment [4] (setting [25]), 7.37; in experiment [5] (setting [25]), not above 4.15; in experiment [6] (setting [25]), 5.90.

Take CWCNATDTW: the pKd in experiment [5] (setting [27]) is 6.15.

GLVGLVTFLL: the pKd is 5.69 in experiment [7] (setting [28]); 6.72 in experiment [8] (setting [28]); 6.91 in experiment [9] (setting [28]); 7.31 in experiment [10] (setting [28]); 6.67 in [11] (setting [28]).

Take SFIEVKSCHW: the negative logarithm of the Kd (pKd) in experiment [5] (setting [29]) was 6.34.

Consider PEDPVEIALY, for which the pKd in experiment [1] (setting [28]) is not above 4.46; in [2] (setting [28]) it was 4.82; in experiment [3] (setting [28]), not above 4.15; in [4] (setting [28]) it was 6.02; in experiment [5] (setting [28]), not above 4.15; in experiment [6] (setting [28]), not above 4.16.

Turning to MWHVTRGSVI, the values for the pKd in experiment [3] (setting [26]) and in [5] (setting [26]) were 5.89 and 5.97, respectively.

Consider PYMPTVIEEL, for which the pKd in experiment [3] (setting [26]) was 6.68.

On to RPDTRHLRVL, for which the pKd is not above 4.15 in [12]; not above 4.16 in experiment [7] (setting [30]); not above 4.15 in experiment [8] (setting [30]); not above 4.15 in experiment [9] (setting [30]); not above 4.16 in [13]; not above 4.16 in [10] (setting [30]). In addition, the pKd in experiment [14] was not above 4.16; in experiment [15] it was not above 4.15; in [16], not above 4.15; in experiment [17], 7.93; in experiment [18] it was not above 4.15; in experiment [19], not above 4.16. Besides, the negative logarithm of the Kd (pKd) in [11] (setting [30]), in [20] and in experiment [21] was not above 4.16 each time.

For the sequence GYKETPFLTI, the negative logarithm of the Kd (pKd) in experiment [2] (setting [31]) is 6.97; in experiment [3] (setting [31]) it was 6.80; in [5] (setting [31]) it was 6.86.

For QYVYMGQPL, in [3] (setting [27]), the pKd was 5.34.

Turning to VTNLISETLK, the pKd was 5.49 in experiment [12]; 4.76 in experiment [7] (setting [30]); not above 4.15 in [8] (setting [30]); not above 4.15 in experiment [9] (setting [30]); not above 4.16 in experiment [13]; not above 4.16 in [10] (setting [30]). In addition, the negative-log Kd (pKd) in [14] is not above 4.16; in [15], not above 4.47; in [16], 7.03; in experiment [17], not above 4.16; in [18], 6.39; in [19], 8.07. Further, the pKd in experiment [11] (setting [30]) is not above 4.46; in [20] it was not above 4.16; in experiment [21], not above 4.16.

Take LVGLLSNAAS: the pKd was 5.88 in [7] (setting [32]); 5.76 in [8] (setting [32]); 6.40 in experiment [9] (setting [32]); 4.95 in [10] (setting [32]); 5.37 in experiment [11] (setting [32]).

In the case of FYSEESPTEY, the pKd in [1] (setting [33]) was 6.72; in [22] (setting [33]) it was not above 4.16; in experiment [23] (setting [33]), not above 4.31; in experiment [2] (setting [33]) it was 7.10; in experiment [4] (setting [33]), not above 4.57; in experiment [6] (setting [33]), 5.13.

Regarding IAMGYVVSSF, the pKd in experiment [1] (setting [34]) is 5.29; in experiment [22] (setting [34]), 6.00; in experiment [23] (setting [34]), 5.04; in experiment [2] (setting [34]), 5.83; in experiment [4] (setting [34]), 6.66; in experiment [6] (setting [34]) it was 6.28.

As for ATLMKTSCSK, the negative logarithm of the Kd (pKd) in experiment [12] was 6.39; in [7] (setting [30]) it was not above 4.16; in experiment [8] (setting [30]) it was not above 4.15; in experiment [9] (setting [30]), not above 4.15; in [13], not above 4.16; in experiment [10] (setting [30]) it was not above 4.16. Moreover, the pKd was not above 4.16 in [14]; not above 4.15 in [15]; 5.31 in experiment [16]; not above 4.67 in experiment [17]; 7.47 in experiment [18]; 7.70 in [19]. In addition, the pKd in [11] (setting [30]), in [20] and in experiment [21] was not above 4.16 throughout.

For DTGNYILCY, the pKd in [1] (setting [31]) was 6.56; in experiment [22] (setting [31]), not above 4.61; in experiment [23] (setting [31]), 5.61; in [2] (setting [31]), 5.85; in [4] (setting [31]), 4.74; in experiment [6] (setting [31]), 5.24.

Consider VTLITGNMSF, for which the negative-log Kd (pKd) in experiment [3] (setting [29]) was 4.94.

As for AYAQMWSLM, in experiment [3] (source organism: Dengue virus 3 Martinique/1243/1999), the pKd is 7.92.

Turning to GARVIWMDAY, the pKd in experiment [12] was 6.66; in [15], 6.30; in experiment [16] it was 6.01; in [2] (setting [30]), not above 4.25; in experiment [18], 5.99; in [19] it was 5.26.

Turning to LLFASMGFK, the pKd in experiment [12] was 7.25; in experiment [7] (setting [30]), 4.78; in experiment [8] (setting [30]) it was 6.53; in experiment [9] (setting [30]), 6.74; in [13], not above 4.38; in experiment [10] (setting [30]), 5.32. The pKd was not above 4.11 in experiment [14]; 5.53 in [15]; 7.90 in experiment [16]; not above 4.11 in [17]; 9.06 in experiment [18]; 8.77 in experiment [19]. For the same sequence, the pKd in experiment [11] (setting [30]) was not above 4.44; in experiment [20] it was not above 4.11; in experiment [21], not above 4.11.

As for TYGLNTFTNM, in [5] (setting [29]), the pKd is 5.31.

Turning to SFIEVKTCIW, the negative-log Kd (pKd) in [24] is 5.90; in experiment [5] (setting [27]), 7.76.

Regarding LSEMLNKEY, the pKd in experiment [1] (setting [31]) is 8.28; in experiment [22] (setting [31]), not above 4.11; in [23] (setting [31]), 5.01; in experiment [2] (setting [31]) it was 5.24; in experiment [4] (setting [31]), 4.83; in experiment [6] (setting [31]) it was not above 4.11.

Take ELINIPYCNY: the pKd was 4.80 in experiment [1] (setting [35]); not above 4.55 in experiment [22] (setting [35]); not above 4.15 in [23] (setting [35]); 5.74 in experiment [2] (setting [35]); 7.05 in experiment [4] (setting [35]); 6.64 in experiment [6] (setting [35]).
